Where a chain is given by its changes, count along the chain named. Several values for one entry are separate records, joined by “and”; a condition that tells them apart may be missing. Equal entries are not always repeated.
What was measured:
Mouse CD137 = target: T1, Mouse CD137 (mouse, UniProt P20334 24-187, limits assumed); assay: SPR
T1 construct: also called murine CD137
T1 sequence (looked up): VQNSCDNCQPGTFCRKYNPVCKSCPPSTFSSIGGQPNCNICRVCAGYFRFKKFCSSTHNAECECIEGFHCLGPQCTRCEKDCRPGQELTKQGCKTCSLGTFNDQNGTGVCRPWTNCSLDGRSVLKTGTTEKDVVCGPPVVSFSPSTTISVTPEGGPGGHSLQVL

Mouse GPC3 = Mouse GPC3 (mouse, UniProt Q8CFZ4 25-558, limits assumed); assay: SPR
Sequence of Mouse GPC3 (Q8CFZ4 25-558 limits assumed): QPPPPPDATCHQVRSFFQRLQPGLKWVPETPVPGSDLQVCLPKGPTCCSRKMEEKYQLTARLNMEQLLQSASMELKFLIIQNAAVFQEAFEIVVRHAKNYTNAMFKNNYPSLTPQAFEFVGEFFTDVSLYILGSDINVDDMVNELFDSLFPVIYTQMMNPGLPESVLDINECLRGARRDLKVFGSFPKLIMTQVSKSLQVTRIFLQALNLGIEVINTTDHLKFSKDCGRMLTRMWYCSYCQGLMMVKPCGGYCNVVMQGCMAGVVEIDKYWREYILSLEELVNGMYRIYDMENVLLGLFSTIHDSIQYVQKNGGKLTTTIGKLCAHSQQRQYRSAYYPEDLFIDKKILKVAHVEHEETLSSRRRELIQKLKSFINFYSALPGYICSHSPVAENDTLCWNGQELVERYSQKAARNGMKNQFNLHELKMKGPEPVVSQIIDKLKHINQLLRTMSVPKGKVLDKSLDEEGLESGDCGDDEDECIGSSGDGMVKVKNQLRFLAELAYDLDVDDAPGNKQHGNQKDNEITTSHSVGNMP

FcγRI = FcγRI (UniProt P12314 16-288, limits assumed); assay: ELISA
Sequence of FcγRI (P12314 16-288 limits assumed): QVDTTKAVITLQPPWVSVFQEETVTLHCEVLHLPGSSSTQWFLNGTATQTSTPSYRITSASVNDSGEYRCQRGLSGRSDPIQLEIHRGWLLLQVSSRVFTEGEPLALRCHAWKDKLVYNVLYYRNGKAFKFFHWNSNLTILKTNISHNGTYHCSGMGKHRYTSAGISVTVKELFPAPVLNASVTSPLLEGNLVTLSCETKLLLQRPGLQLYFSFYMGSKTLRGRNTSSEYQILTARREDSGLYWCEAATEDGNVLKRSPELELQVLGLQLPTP

FcγRIIAH131 = target: T2, FcγRIIAH131 (UniProt P12318 36-218, limits assumed); assay: ELISA
T2 sequence (looked up): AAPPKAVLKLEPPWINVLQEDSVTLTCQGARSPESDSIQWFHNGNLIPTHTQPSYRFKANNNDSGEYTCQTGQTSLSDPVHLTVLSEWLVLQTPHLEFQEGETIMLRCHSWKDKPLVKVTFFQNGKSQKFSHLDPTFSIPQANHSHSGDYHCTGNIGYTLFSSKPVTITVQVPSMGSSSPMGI

FcγRIIAR131 = target: T3, FcγRIIAR131 (UniProt P12318 36-218, limits assumed); assay: ELISA
T3 sequence (looked up): T2 sequence (looked up) with H132R

FcγRIIB = target: T4, FcγRIIB (UniProt P31994 43-217, limits assumed); assay: ELISA
T4 sequence (looked up): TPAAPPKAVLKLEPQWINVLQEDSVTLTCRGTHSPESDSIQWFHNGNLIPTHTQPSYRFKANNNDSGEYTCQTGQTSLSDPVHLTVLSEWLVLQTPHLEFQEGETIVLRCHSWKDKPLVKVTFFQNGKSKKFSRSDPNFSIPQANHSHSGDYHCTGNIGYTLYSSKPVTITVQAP

FcγRIIIAV158 = FcγRIIIAV158 (UniProt P08637 17-208, limits assumed); assay: ELISA
Sequence of FcγRIIIAV158 (P08637 17-208 F176V limits assumed): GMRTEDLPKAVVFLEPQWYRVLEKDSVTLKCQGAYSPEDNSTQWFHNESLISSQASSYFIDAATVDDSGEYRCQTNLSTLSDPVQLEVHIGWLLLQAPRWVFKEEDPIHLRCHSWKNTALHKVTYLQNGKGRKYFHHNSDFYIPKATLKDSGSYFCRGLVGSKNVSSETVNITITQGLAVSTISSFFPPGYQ

FcγRIIIAF158 = FcγRIIIAF158 (UniProt P08637 17-208, limits assumed); assay: ELISA
Sequence of FcγRIIIAF158 (P08637 17-208 limits assumed): as the sequence (P08637 17-208 F176V limits assumed) above, with V160F counted along it

FcγRIIIB = FcγRIIIB (UniProt O75015 17-200, limits assumed); assay: ELISA
Sequence of FcγRIIIB (O75015 17-200 limits assumed): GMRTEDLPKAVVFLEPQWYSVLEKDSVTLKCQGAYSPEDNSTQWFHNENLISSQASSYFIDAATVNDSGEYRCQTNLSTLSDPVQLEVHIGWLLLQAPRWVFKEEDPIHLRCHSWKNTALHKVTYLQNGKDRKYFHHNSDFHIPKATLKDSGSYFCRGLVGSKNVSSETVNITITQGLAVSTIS

[1] = target: T5, Human CD137 (recombinant protein, Example 11) (human, UniProt Q07011 24-186); assay: SPR
T5 sequence (Q07011 24-186 limits assumed): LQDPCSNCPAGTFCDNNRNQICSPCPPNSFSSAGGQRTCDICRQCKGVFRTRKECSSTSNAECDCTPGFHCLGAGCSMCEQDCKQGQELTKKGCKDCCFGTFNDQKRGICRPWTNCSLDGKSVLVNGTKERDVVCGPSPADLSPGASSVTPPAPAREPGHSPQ

[2] = target: T6, Monkey CD137 (recombinant protein, Example 11) (cynomolgus monkey, UniProt Q07011 24-186 (human entry), limits assumed); assay: SPR
T6 construct: also called cynomolgus monkey CD137
T6 chain: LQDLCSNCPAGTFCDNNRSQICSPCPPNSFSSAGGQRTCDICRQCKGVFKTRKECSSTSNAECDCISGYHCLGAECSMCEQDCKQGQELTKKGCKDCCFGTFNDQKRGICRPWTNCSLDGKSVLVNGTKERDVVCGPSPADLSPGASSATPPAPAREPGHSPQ

[3] = target: T7, Human GPC3 (recombinant protein, Example 11) (human, UniProt P51654 25-559, limits assumed); assay: SPR
Monkey GPC3 = target: T8, Monkey GPC3 (cynomolgous monkey, UniProt A0A2K5VK50 24-553); assay: SPR
T8 construct: Bought protein; also called monkey GPC3 (Cat #GP3-C5225, Acrobiosystem)

[4] = target: T9, full-length human CD137 on cells (human, UniProt Q07011 24-255); assay: cell-based or functional assay
T9 sequence (Q07011 24-255 limits assumed): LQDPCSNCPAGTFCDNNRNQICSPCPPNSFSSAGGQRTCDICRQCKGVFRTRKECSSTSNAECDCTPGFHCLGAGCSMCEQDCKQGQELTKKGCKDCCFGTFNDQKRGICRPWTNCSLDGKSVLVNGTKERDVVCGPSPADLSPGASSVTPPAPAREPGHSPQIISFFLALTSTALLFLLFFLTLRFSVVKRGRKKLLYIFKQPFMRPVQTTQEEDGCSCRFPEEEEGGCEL

human GPC3 on cells [5] = target: T10, human GPC3 on cells (human, UniProt P51654 25-559); assay: cell-based or functional assay
[6] = target: T9, full-length human CD137 on cells; assay: FACS on HuT78/CD137 cells
human GPC3 on cells [7] = target: T10, human GPC3 on cells; assay: FACS on Hepa1-6T-OS8-GPC3 cells
C1q = C1q (UniProt P02745 23-245; P02746 28-253; P02747 29-245); assay: C1q binding ELISA
Sequence of C1q (P02745 23-245, chain 1 of 3): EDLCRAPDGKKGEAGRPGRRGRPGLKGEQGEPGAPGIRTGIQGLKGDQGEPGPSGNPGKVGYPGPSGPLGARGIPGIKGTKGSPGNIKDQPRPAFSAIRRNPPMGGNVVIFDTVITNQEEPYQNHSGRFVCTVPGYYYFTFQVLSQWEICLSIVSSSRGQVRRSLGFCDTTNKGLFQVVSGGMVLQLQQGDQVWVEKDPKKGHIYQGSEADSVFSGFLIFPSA
Sequence of C1q (P02746 28-253, chain 2 of 3): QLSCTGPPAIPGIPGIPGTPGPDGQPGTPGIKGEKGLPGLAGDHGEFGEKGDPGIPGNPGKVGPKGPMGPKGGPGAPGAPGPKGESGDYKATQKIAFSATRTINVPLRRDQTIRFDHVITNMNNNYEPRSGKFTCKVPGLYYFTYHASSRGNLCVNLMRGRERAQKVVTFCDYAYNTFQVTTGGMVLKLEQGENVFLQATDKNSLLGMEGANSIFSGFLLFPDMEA
Sequence of C1q (P02747 29-245, chain 3 of 3): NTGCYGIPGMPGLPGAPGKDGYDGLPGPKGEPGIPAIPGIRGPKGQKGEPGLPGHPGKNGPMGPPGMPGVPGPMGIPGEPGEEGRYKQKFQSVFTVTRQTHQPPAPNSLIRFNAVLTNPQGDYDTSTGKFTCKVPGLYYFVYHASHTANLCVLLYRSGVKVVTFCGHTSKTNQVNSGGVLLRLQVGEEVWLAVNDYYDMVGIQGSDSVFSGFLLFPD

[8] = target: human CD137 ECD mutant F36A (human, UniProt Q07011 24-186); assay: ELISA on wild type and mutant CD137 proteins
Sequence of human CD137 ECD mutant F36A (Q07011 24-186 F36A limits assumed): as the sequence (Q07011 24-186 limits assumed) above, with F13A counted along it

[9] = target: human CD137 ECD mutant P47A (human, UniProt Q07011 24-186); assay: ELISA on wild type and mutant CD137 proteins
Sequence of human CD137 ECD mutant P47A (Q07011 24-186 P47A limits assumed): as the sequence (Q07011 24-186 limits assumed) above, with P24A counted along it

[10] = target: human CD137 ECD mutant P49A (human, UniProt Q07011 24-186); assay: ELISA on wild type and mutant CD137 proteins
Sequence of human CD137 ECD mutant P49A (Q07011 24-186 P49A limits assumed): as the sequence (Q07011 24-186 limits assumed) above, with P26A counted along it

[11] = target: T11, DS50b (human GPC3 AA 511-560) (human, constructed to the N terminal of biotin, generating DS50b-KLH (so in the source)); assay: ELISA on DS50b-KLH [B]
T11 construct: also called DS50b-KLH
T11 peptide: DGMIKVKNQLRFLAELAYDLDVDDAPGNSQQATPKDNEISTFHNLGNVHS

[12] = target: T12, GK28b (human GPC3 AA 537-563) (human, constructed to the N terminal of biotin, generating GK28b-KLH (so in the source)); assay: ELISA on GK28b-KLH [A]
T12 construct: also called GK28b-KLH
T12 peptide: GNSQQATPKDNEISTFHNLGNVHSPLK

huGPC3-His = target: T13, huGPC3-His (human, UniProt P51654 25-559); assay: ELISA on huGPC3-His [C]
T13 construct: not shown: His tag

[13] = target: T5, Human CD137 (recombinant protein, …); assay: dual antigen binding ELISA with CD137 and GPC3 bound at the same time; which antigen is coated is not stated
[14] = target: T7, Human GPC3 (recombinant protein, …); assay: as above

B1: BE-830 (bispecific antibody, human IgG1, kappa)
heavy: QVQLVQSGAEVKKPGASVKVSCKASGYTFTDYEMHWVRQAPGQGLEWMGALDPKTGDTAYSQKFKGRVTLTADKSTSTAYMELSSLTSEDTAVYYCTRFYSYTYWGQGTLVTVSSASTKGPSVFPLAPSSKSTSGGTAALGCLVKDYFPEPVTVSWNSGALTSGVHTFPAVLQSSGLYSLSSVVTVPSSSLGTQTYICNVNHKPSNTKVDKKVEPKSCDKTHTCPPCPAPPAAGPSVFLFPPKPKDTLMISRTPEVTCVVVDVSHEDPEVKFNWYVDGVEVHNAKTKPREEQYNSTYRVVSVLTVLHQDWLNGKEYKCKVSNKALAAPIEKTISKAKGQPREPQVYTLPPSREEMTKNQVSLTCLVKGFYPSDIAVEWESNGQPENNYKTTPPVLDSDGSFFLYSKLTVDKSRWQQGNVFSCSVMHEALHNHYTQKSLSLSPGKGGGGSEVQLLESGGGLVQPGGSLRLSCAASGFTVSAEDVGWVRQAPGKGLEWVSAILDKGGSTYYAESVKGRFTISRDNAKNTLYLQMSSLRAEDTAVYYCARIVYHAGGGVTFDTRGQGTQVTVSS
light: DVVMTQSPLSLPVTPGEPASISCRSSQSLVHSNRNTYLHWYLQKPGQSPQLLIYKVSNRFSGVPDRFSGSGSGTDFTLKISRVEAEDVGVYYCSQNTHVPPTFGQGTKLEIKRTVAAPSVFIFPPSDEQLKSGTASVVCLLNNFYPREAKVQWKVDNALQSGNSQESVTEQDSKDSTYSLSSTLTLSKADYEKHKVYACEVTHQGLSSPVTKSFNRGEC
notes: also called GPC3×CD137 multispecific antibody BE-830; GPC3 x CD137 (BE-830)
B1: no binding (Mouse CD137); no binding (Mouse GPC3); no binding (FcγRI). B1: no binding (FcγRIIAH131); no binding (FcγRIIAR131); no binding (FcγRIIB). B1: no binding (FcγRIIIAV158); no binding (FcγRIIIAF158); no binding (FcγRIIIB). It also gave a Kd [1] of 40.1 nM, a koff [1] of 0.00484 s⁻¹ and a kon [1] of 121000 M⁻¹ s⁻¹. For the same binder, the Kd [2] was 19.2 nM, the koff [2] was 0.00291 s⁻¹ and the kon [2] was 152000 M⁻¹ s⁻¹. The Kd [3] was 0.559 nM, the koff [3] was 0.000312 s⁻¹ and the kon [3] was 559000 M⁻¹ s⁻¹. For the same binder, the Kd (Monkey GPC3) was 0.643 nM, the koff (Monkey GPC3) was 0.000273 s⁻¹ and the kon (Monkey GPC3) was 425000 M⁻¹ s⁻¹. The “EC50, cell-based bioluminescent assay (NFκB luciferase in JK-NFκB-CD137 co-cultured with Hepa1-6T-OS8-GPC3)” value [4] was 0.149 µg/ml and 0.86 nM, the “EC50, cell-based bioluminescent assay (NFκB luciferase in JK-NFκB-CD137 co-cultured with Hepa1-6T-OS8-GPC3)” value (human GPC3 on cells [5]) was 0.149 µg/ml and 0.86 nM and the EC50 [6] was 0.712 µg/mL and 4.09 nM. The EC50 (human GPC3 on cells [7]) was 1.11 µg/mL and 6.41 nM, the “EC50 (read off the curve)” value (C1q) was about 2 µg/mL and the “decrease of binding activity against wild type CD137” value (shortened to “decrease of binding activity”) [8] was over 75%. The “decrease of binding activity” value [9] was over 75%, the “decrease of binding activity” value [10] was over 75% and the “EC50 (read off the curve)” value [11] was about 0.009 µg/mL. The “EC50 (read off the curve)” value [12] was about 0.008 µg/mL, the “EC50 (read off the curve)” value (huGPC3-His) was about 0.04 µg/mL and the “EC50 (read off the curve)” value [13] was about 0.07 µg/mL. For the same binder, the “EC50 (read off the curve)” value [14] was about 0.07 µg/mL.
